Reference: patent WO2010029497A1 (dated 2010)

Legend:
human NGF [1] = biological target: T1, human NGF (human, UniProt P01138 122-241); experiment: SPR (BIAcore 3000), human NGF immobilised on CM5 chip, Fab injected
human NGF [2] = biological target: T1, human NGF; experiment: cell-based or functional assay
human NGF [3] = biological target: T1, human NGF; experiment: SPR (BIAcore), 100 RU human NGF on CM5 chip, Fab injected 2 min, 1800 s dissociation
NT3 = experiment: cell-based or functional assay
human NGF [4] = biological target: T1, human NGF; experiment: SPR (BIAcore 3000), human NGF immobilised on CM5 chip
rat NGF = rat NGF (rat, UniProt P25427 122-241); experiment: cell-based or functional assay
human NGF [5] = biological target: T1, human NGF; experiment: summary sentence of the binding properties (BIAcore); its table is not reproduced in this copy
human NGF [6] = biological target: T1, human NGF; experiment: SPR (BIAcore), human NGF immobilised on CM5 chip
human NGF [7] = biological target: T1, human NGF; experiment: SPR (BIAcore) screening assay, human NGF on chip, Fab from small culture lysates

T1 sequence (P01138 122-241 limits assumed): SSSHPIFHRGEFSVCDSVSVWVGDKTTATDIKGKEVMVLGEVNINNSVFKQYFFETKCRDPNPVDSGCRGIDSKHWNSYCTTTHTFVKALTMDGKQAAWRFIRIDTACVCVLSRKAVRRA
Sequence of rat NGF (P25427 122-241 limits assumed): as the sequence (P01138 122-241 limits assumed) above, with S3T, I6V, R9M, M37T, D60A, D65E, M92T, G94D, V117A, A120G counted along it
Sequence of NT3 (P20783 139-257): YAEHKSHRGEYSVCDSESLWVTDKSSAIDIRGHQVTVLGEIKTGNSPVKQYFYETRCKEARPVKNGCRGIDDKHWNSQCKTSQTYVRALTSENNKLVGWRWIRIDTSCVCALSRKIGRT

Q: Which results are given for “Fab fragment of mouse anti-NGF monoclonal antibody 911”?
A: Kd (human NGF [1]): 10 nM; concentration that totally blocked NGF-elicited survival of trigeminal neurons (human NGF [2]): 20 nM; Kd (human NGF [3]): 3.7 nM; koff (human NGF [3]): 8.4e-05 s⁻¹; kon (human NGF [3]): 22000 M⁻¹ s⁻¹

Q: Which inhibition of survival of trigeminal neurons promoted by NT3 (NT3) does the source give for antibody E3 (full antibody) here?
A: > 200 nM

B1: 8L2-4D5 (CDR-grafted antibody, the template) (Fab, V domains shown)
VH: QVQLQESGPGLVKPSETLSLTCTVSGFSLIGYDINWIRQPPGKGLEWIGMIWGDGTTDYNSALKSRVTISVDTSKNQFSLKLSSVTAADTAVYYCARGGYYYGTSYYFDYWGQGTLVTVS
VL: DIQMTQSPSSLSASVGDRVTITCRASQDISNHLNWYQQKPGKAPKLLIYYISRFHSGVPSRFSGSGSGTDFTFTISSLQPEDIATYYCQQSKTLPYTFGQGTKLEIKR
notes: expressed in E. coli with human kappa constant domain (GenBank CAA09181) and CH1 of human IgG2a (P01859)
Q: B1 was tested. Which Kd (human NGF [4]) did it give?
A: ~38 nM

B2: Fab E3 (Fab, V domains shown)
VH: QVQLQESGPGLVKPSETLSLTCTVSGFSLIGYDLNWIRQPPGKGLEWIGIIWGDGTTDYNSAVKSRVTISKDTSKNQFSLKLSSVTAADTAVYYCARGGYWYATSYYFDYWGQGTLVTVS
VL: DIQMTQSPSSLSASVGDRVTITCRASQSISNNLNWYQQKPGKAPKLLIYYTSRFHSGVPSRFSGSGSGTDFTFTISSLQPEDIATYYCQQEHTLPYTFGQGTKLEIKR
notes: Fab made in HEK293 cells, purified on Ni-NTA; also called 3E; Fab 3E
Q: How did the “IC50, inhibition of rat NGF-dependent survival of mouse E13.5 trigeminal neurons, 1.5 pM rat NGF” value (rat NGF) turn out when B2 was run?
A: ~1.3 pM

Q: And the “IC50, inhibition of rat NGF-dependent survival of mouse E13.5 trigeminal neurons, 15 pM rat NGF” value (rat NGF)?
A: ~31.6 pM

Q: And the “IC50, inhibition of human NGF-dependent survival of mouse E13.5 trigeminal neurons, 1.5 pM human NGF” value (human NGF [2])?
A: ~1.2 pM

Q: What about the “IC50, inhibition of human NGF-dependent survival of mouse E13.5 trigeminal neurons, 15 pM human NGF” value (human NGF [2]) of the same molecule?
A: ~21 pM

Q: And the Kd (human NGF [3])?
A: ~0.07 nM

Q: What about the koff (human NGF [3]) of the same molecule?
A: ~4.2e-05 s⁻¹

Q: What about the kon (human NGF [3]) of the same molecule?
A: ~600000 M⁻¹ s⁻¹

Q: And the “fold higher binding affinity than parent mouse antibody 911” value (human NGF [5])?
A: ~50 fold

B3: H19-L129 (Fab, V domains shown)
VH: QVQLQESGPGLVKPSETLSLTCTVSGFSLIGYDLNWIRQPPGKGLEWIGIIWGDGTTDYNSAVKSRVTISKDTSKNQFSLKLSSVTAADTAVYYCARGGYYYGTSYYFDYWGQGTLVTVS
VL: DIQMTQSPSSLSASVGDRVTITCRASQSISNNLNWYQQKPGKAPKLLIYYTSRFHSGVPSRFSGSGSGTDFTFTISSLQPEDIATYYCQQSKTLPYTFGQGTKLEIKR
notes: carries I34L, M50I, L63V (heavy) and D28S, H32N, I51T (light) with the grafted H3 and L3 CDRs, so it is E3 without Y101W, G103A, S91E, K92H; Fab with human CH1 (IgG2a) and kappa constant domains; also called Fab H19-L129; combined clone H19-L129
Q: For B3, which Kd (human NGF [6]) is on record?
A: ~1 nM

B4: 8L2-6D5 (CDR-grafted antibody with the framework mutation V71K) (Fab, V domains shown)
VH: QVQLQESGPGLVKPSETLSLTCTVSGFSLIGYDINWIRQPPGKGLEWIGMIWGDGTTDYNSALKSRVTISKDTSKNQFSLKLSSVTAADTAVYYCARGGYYYGTSYYFDYWGQGTLVTVS
VL: DIQMTQSPSSLSASVGDRVTITCRASQDISNHLNWYQQKPGKAPKLLIYYISRFHSGVPSRFSGSGSGTDFTFTISSLQPEDIATYYCQQSKTLPYTFGQGTKLEIKR
notes: Fab with human CH1 (IgG2a) and kappa constant domains, his tag at the C terminus of the heavy chain; also called clone 8L2-6D5; Fab 8L2-6D5
Q: Which koff (human NGF [7]) does the source give for B4 here?
A: 0.001 s⁻¹

Q: What about the Kd (human NGF [1]) of the same molecule?
A: ~15 nM

B5: Fab 3C (Fab, V domains shown)
VH: QVQLQESGPGLVKPSETLSLTCTVSGFSLIGYDLNWIRQPPGKGLEWIGIIWGDGTTDYNSAVKSRVTISKDTSKNQFSLKLSSVTAADTAVYYCARGGYWYATSYYFDYWGQGTLVTVS
VL: DIQMTQSPSSLSASVGDRVTITCRASQSISNNLNWYQQKPGKAPKLLIYYTSRFHSGVPSRFSGSGSGTDFTFTISSLQPEDIATYYCQQERTLPYTFGQGTKLEIKR
notes: Fab from HEK293 cells
Q: For B5, which Kd (human NGF [3]) is on record?
A: ~0.35 nM
